{"source": "paper PMC12848304", "about": "“Small-molecule inhibitor of C‑terminal HSP90 dimerization modulates autophagy and functions synergistically with mTOR inhibition to kill cisplatin-resistant cancer cells” (Cell Death & Disease, 2025)", "proteins": {"B1": {"name": "recombinant HSP90α CTD (domain or fragment)", "chain": "not shown", "notes": "C-terminal domain (CTD) of heat shock protein 90 alpha (HSP90α; HSPC1/HSP90AA1); It says human (hHSP90) only of HSP90 in general and in the modelling; also called CTD r-HSP90α; HSP90 CTD; source: recombinant"}}, "biological_target": "the molecule itself", "experiment": "cross-linking; HSP90α CTD (2 μM) in Na2HPO4 (25 mM; pH 7.4), incubated 1 h at room temperature with different concentrations of VWK147, then BS3 100 μM for 1 h at room temperature; 12% SDS-PAGE and Western blot with anti-HSP90 (AC88)"}
{"protein": "B1", "values": [{"measurement": "stoichiometry N", "value": 2}]}
